From patent publication US20210330736A1 (UNIVERSITEIT VAN AMSTERDAM, priority 2018, published 2021)
Bridges are numbered along the chain shown (N, C = ends). Where no end group is shown, it is not given here.

Assays:
[1] = tested on: PDE7; conditions: cited from earlier work
[2] = biological target: GUCY2C (Homo sapiens, UniProt P25092); assay: Th Ser40 phosphorylation in HEK cells co-transfected with Th and GUCY2C (western blot); format: cell-based; set-up: expressed in transfected cells; host or cells: HEK cells (ATCC), calcium-phosphate transfection, co-transfected with mouse Th; conditions: guanylin 10 μM, uroguanylin 1 μM, IBMX 100 μM, 1 hour
GUCY2C, sequence (P25092 24-1073): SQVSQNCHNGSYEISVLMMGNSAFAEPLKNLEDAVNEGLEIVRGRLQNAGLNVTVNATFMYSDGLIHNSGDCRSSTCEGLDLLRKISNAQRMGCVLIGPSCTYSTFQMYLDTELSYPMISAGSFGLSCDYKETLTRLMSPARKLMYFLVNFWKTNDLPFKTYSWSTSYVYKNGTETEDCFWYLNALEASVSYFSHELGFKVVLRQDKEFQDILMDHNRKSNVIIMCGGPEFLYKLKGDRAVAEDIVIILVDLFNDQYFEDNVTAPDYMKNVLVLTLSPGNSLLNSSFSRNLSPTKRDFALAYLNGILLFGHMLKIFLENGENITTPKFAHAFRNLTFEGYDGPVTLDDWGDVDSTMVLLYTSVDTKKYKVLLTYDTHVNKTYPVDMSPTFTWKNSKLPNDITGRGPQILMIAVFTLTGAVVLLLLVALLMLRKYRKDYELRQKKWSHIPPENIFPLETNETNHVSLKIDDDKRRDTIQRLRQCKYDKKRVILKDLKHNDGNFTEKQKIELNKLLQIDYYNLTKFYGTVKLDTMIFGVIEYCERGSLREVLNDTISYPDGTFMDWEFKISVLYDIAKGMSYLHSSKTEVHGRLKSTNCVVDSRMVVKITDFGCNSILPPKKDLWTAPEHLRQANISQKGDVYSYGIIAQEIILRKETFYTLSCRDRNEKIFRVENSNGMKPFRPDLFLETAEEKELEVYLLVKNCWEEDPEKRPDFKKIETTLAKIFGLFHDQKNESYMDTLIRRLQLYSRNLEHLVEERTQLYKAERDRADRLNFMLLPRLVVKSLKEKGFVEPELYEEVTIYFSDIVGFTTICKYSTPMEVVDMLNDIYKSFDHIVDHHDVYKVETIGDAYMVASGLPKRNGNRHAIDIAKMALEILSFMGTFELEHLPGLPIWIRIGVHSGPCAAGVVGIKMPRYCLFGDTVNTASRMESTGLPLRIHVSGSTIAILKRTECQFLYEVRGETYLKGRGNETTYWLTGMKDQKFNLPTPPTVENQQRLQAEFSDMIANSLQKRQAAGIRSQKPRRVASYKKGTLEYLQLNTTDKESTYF
Protocol: FIG. 4. GUCY2C activation increases Ser40 phosphorylation. Immunocytochemistry images (A) and western blotting analysis (B) of HEK cultures transfected with Th or Th+GUCY2C. (C) Co-transfected HEK cells were treated with guanylin (G) or uroguanylin (UroG) and changes in Ser40 phosphorylation were studied. The graph represents the statistical analysis (n=3 for Control, n=6 for Guanylin, n=9 for Uroguanylin; Mean±SEM). Unpaired Student's t-test (p-value: **<0.01).
FIG. 5. […] (A) HEK cultures were treated with guanylin, in the presence or absence of IBMX. […] Unpaired Student's t-test (p-values: ****<0.0001, **<0.01, *<0.05). (B) HEK cells were co-transfected with Th and either the wt GUCY2C or a gain-of-function mutant (R792S). Ser40 phosphorylation was studied following guanylin treatment (G). […] Unpaired Student's t-test (p-values: ***<0.001, **<0.01).
HEK cells were maintained in 100-mm Petri dishes and grown in DMEM medium supplemented with L-glutamine, penicillin-streptomycin (Pen&Strep) and 10% heat-inactivated fetal bovine serum (HIFBS). Growing conditions were 37° C. and 5% CO2. For every-other-day passages, HEK cultures were split at a 1:3 dilution. From Friday to Monday, the split proportion was doubled for all cell lines. For passaging, cultures were rinsed with PBS and incubated with 1 mL of trypsin during 5 minutes. Cells were resuspended in growth medium and finally split to the proper dilution. The experiments were performed in 12-well plates. For immunocytochemistry analysis, sterile 18-mm coverslips were added prior to the plating. 500 !μL of cell resuspension was seeded in each well. If experiments were to be performed 48 hours after the plate preparation, 1:5 was the seeding ratio for HEK cells. When the experiments took place 96 hours post-plating, 1:7 was the working dilution for HEK cells. Unless otherwise stated, HEK cultures were processed 96 hours post-plating.
HEK cells were transfected using the calcium-phosphate method. 12-well plates were refreshed with 500 μL of growth medium before transfection. […]

[3] = biological target: GUCY2C R792S gain-of-function mutant (human) (UniProt P25092)
[4] = biological target: mouse GUCY2C (endogenous, in mouse striatal slices) (mouse, UniProt Q3UWA6); assay: cell-based or functional assay

Molecule	P-Ser40 levels / Ser40 phosphorylation (in words) [2]	P-S40 TH/TTH, fold change (average), mouse striatal slices, 10 µM, 1 h (WES) [4]	other results
OCCN(CCO)c1nc(N2CCCCC2)c2nc(N(CCO)CCO)nc(N3CCCCC3)c2n1 [Dipyridamole]			IC50 [1]: 600 nM
CC(C)Cn1c(=O)n(C)c(=O)c2[nH]cnc21 [IBMX, 3-isobutyl-1-methylxanthine]	potentiated the increase in Ser40 phosphorylation		
uroguanylin: natural agonistic ligand of GUCY2C, 16 amino acid peptide (NDDCELCVNVACTGCL; disulfide 4-12, 7-15; UniProt Q16661 97-112, looked up)	increase P-Ser40 levels		
guanylin (Example 1) (ligand)			Ser40 phosphorylation of Th upon guanylin treatment (western blot) (fold higher than with the wt receptor) [3]: 1.5
H-NDDCELCVNVACTGCL-OH (disulfide 4-12, 7-15; SMILES CC(C)C[C@H](NC(=O)[C@@H]1CSSC[C@@H]2NC(=O)[C@H](CC(C)C)NC(=O)[C@H](CCC(=O)O)NC(=O)[C@@H](NC(=O)[C@H](CC(=O)O)NC(=O)[C@H](CC(=O)O)NC(=O)[C@@H](N)CC(N)=O)CSSC[C@H](NC(=O)[C@H](C)NC(=O)[C@H](C(C)C)NC(=O)[C@H](CC(N)=O)NC(=O)[C@H](C(C)C)NC2=O)C(=O)N[C@@H]([C@@H](C)O)C(=O)NCC(=O)N1)C(=O)O) [peptide 1]		1.11 fold change (average)	
H-NDDCELCVNVACTGC-OH (disulfide 4-12, 7-15; SMILES CC(C)C[C@@H]1NC(=O)[C@H](CCC(=O)O)NC(=O)[C@@H](NC(=O)[C@H](CC(=O)O)NC(=O)[C@H](CC(=O)O)NC(=O)[C@@H](N)CC(N)=O)CSSC[C@@H]2NC(=O)[C@H](C)NC(=O)[C@H](C(C)C)NC(=O)[C@H](CC(N)=O)NC(=O)[C@H](C(C)C)NC(=O)[C@H](CSSC[C@@H](C(=O)O)NC(=O)CNC(=O)[C@H]([C@@H](C)O)NC2=O)NC1=O) [peptide 3]		1.2 fold change (average)	
